Residue numbers refer to the chain shown, from its start. Names may count otherwise. Blank lines part the entries; values can stand above or below the binder they belong to.
How the values were obtained:
[1] = biological target: T1, Arp2/3 complex from NIH 3T3 cell lysates (UniProt P61161 1-394; Q99JY9 2-418; Q9WV32 1-372; Q9CVB6 1-300; Q9JM76 2-178; P59999 …); test: GST pull-down from NIH 3T3 cell extracts, immunoblot
Description: (§1) Recombinant protein purification, in vitro GST-‘pull downs’ and two-hybrid assays. Two-hybrid assays and in vitro translation/GST-pull downs were conducted as previously described (Tominaga et al., supra; Sahai, E. et al., Embo J 17, 1350-61 (1998)). […] Beads were rinsed three times with PBS 1×supplemented with 0.1 μg/μl of BSA and were analyzed by SDS-PAGE and immunoblotted with purified antibodies recognising either Arp3, p34, or actin. For pull-downs from cell extracts, NIH 3T3 cells were lysed and extracted as per (Machesky, L. M. et al., Curr Biol 8, 1347-56 (1998)), and incubated with purified GST-fusion proteins bound to glutathione beads before extensive washing, separation by SDS-PAGE, transfer, and immunoblotting.
After incubation, the complexes were washed extensively and the resulting protein complexes were separated by SDS-PAGE, transferred to membranes, and analyzed by Western blots using antibodies directed to actin, Arp3 and p34 Arc (Welch, M. D. et al., Nature 385, 265-9 (1997)).

[2] = biological target: T2, mDia2 DAD (amino acids 1031-1171), yeast two-hybrid Gal4 fusion (mouse, UniProt Q9Z207 1031-1171); test: yeast two-hybrid, HIS reporter growth on 3-aminotriazole
T2 construct: Two-hybrid construct; also called DRF-autoregulatory domain; Dia-autoregulatory domain
Description: Yeast reporter strain HF7c was transformed with the indicated ‘bait’ (Trp⁻) and ‘prey’ (Leu⁻) plasmids before restreaking on selective plates (His) with increasing concentrations 3-aminotriazole (0, 2, 4, 8, 16, 32, and 64 mM) that selects for correlating expression of the HIS-reporter gene. The indicated numbers correspond to the highest concentration of 3-AT on which there was growth after 3 days. […] The mDia2 plasmid encodes amino acids 47-800.
(§2) Two-hybrid assays and in vitro translation/GST-pull downs were conducted as previously described (Kikyo et al., supra; Hill, C. S. et al., supra). In short, the indicated ‘bait’ proteins were generated by subcloning the indicated cDNAs into pGBT9 Gal4 DNA binding domain plasmid; ‘prey’ were Gal4 activation domain fusion proteins generated in either pGAD 10 or pSE1107. HF7c (Clontech) reporter yeast strain were co-transformed with the indicated plasmids and selected on appropriate plates for bait and prey auxotrophic markers, then restreaked onto His-plate to select for Gal4 regulated HIS reporter expression. Levels of reporter activity were monitored by replicate streaking onto Trp/Leu/His-plates with increasing concentrations (0-64 mM) of 3-aminotriazole.

[3] = biological target: T1, Arp2/3 complex from NIH 3T3 cell lysates; test: GST pull-down from NIH 3T3 cell lysates, immunoblot with anti-p34 Arc
Description: 15 μg of the indicated fusion protein was indubated with lysates as in FIGS. 7a-7c. Bound material was detected after extensive washing and immunoblotting with anti-p34 Arc.
as §1

[4] = biological target: mDia2 (amino acids 47-800), yeast two-hybrid Gal4 fusion (mouse, UniProt Q9Z207 47-800); test: yeast two-hybrid
Chain of mDia2 (amino acids 47-800), yeast two-hybrid Gal4 fusion (Q9Z207 47-800 limits assumed): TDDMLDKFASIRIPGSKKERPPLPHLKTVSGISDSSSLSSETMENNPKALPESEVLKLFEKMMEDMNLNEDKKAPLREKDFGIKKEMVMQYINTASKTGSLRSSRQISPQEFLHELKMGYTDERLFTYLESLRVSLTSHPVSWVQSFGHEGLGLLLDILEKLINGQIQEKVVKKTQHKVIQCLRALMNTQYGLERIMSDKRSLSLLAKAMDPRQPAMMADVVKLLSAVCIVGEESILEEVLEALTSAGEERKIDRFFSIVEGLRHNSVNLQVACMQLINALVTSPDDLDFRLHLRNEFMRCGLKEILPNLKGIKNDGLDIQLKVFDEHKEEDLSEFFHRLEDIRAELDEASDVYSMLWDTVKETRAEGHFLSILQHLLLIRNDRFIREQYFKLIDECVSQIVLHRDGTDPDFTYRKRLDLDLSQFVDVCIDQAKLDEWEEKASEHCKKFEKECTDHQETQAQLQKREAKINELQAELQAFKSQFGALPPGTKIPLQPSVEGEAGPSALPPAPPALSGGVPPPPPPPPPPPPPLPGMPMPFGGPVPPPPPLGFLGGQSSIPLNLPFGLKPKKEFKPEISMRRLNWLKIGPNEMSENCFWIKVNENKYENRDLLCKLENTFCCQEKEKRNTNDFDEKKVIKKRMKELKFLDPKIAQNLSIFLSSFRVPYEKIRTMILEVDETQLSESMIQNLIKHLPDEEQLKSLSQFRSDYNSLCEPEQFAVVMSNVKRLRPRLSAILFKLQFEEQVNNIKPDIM
Description: as §2
The mutants were tested for binding by two-hybrid analysis and were then expressed in cells.

- binding result [1]: no binding
B1: GST fusion of mDia2 FH2 (amino acids 801-910) (other)
chain: AVSTACEEIKKSKGFSKLLELVLLMGNYMNAGSRNAQTFGFDLSSLCKLKDTKSADQKTTLLHFLVDVCEEKHADILHFVDDLAHLDKASRVSVEMLEKNVKQMGRQLQQ
notes: not shown: glutathione-S-transferase tag of pGEX-KG

- binding result [2]: no binding
B2: mDia2 FH2 (amino acids 801-910), yeast two-hybrid Gal4 fusion (other, not shown: small tags and cut ends)
chain: B1 chain

- binding result [1]: no binding
B3: GST fusion of mDia2 GBD (amino acids 101-216) (other)
chain: VLKLFEKMMEDMNLNEDKKAPLREKDFGIKKEMVMQYINTASKTGSLRSSRQISPQEFLHELKMGYTDERLFTYLESLRVSLTSHPVSWVQSFGHEGLGLLLDILEKLINGQIQEK
notes: as for B1

- binding result [2]: no binding
B4: mDia2 FH1 (amino acids 521-630), yeast two-hybrid Gal4 fusion (other, not shown: small tags and cut ends)
chain: AELQAFKSQFGALPPGTKIPLQPSVEGEAGPSALPPAPPALSGGVPPPPPPPPPPPPPLPGMPMPFGGPVPPPPPLGFLGGQSSIPLNLPFGLKPKKEFKPEISMRRLNW

- binding result [1]: no binding
B5: GST fusion of mDia2 FH1 (amino acids 521-630) (other)
chain: B4 chain
notes: as for B1

B6: GST-DAD K1059E/R1060E (other)
chain: MKTEGDETGVMDSLLEALQSGAAFRDRREETPKLKDIRQSLSPMSQRPVLKVCNHENQKMQLTEGSRPHHSINCNSTRTPVAKELNYNLDTHASTGRIKAVEKEACNAESNKKKEMELLGSVAKSESVPEVEALLARLRAL
notes: not shown: Glutathione-S-transferase carrier (pGEX-KG) and its linker at the N end
- binding result [3]: no binding (tested: 15 ug fusion protein)

- binding result [4]: no binding
B7: mDia2 DAD M1041A, yeast two-hybrid Gal4 fusion (other, not shown: small tags and cut ends)
chain: B6 chain with M11A, E29K, E30R

- binding result [4]: no binding
B8: mDia2 DAD L1044A, yeast two-hybrid Gal4 fusion (other, not shown: small tags and cut ends)
chain: B6 chain with L14A, E29K, E30R

B9: GST-DAD R1057E/R1058E (other)
chain: B6 chain with R27E, R28E, E29K, E30R
notes: as for B6
- binding result [3]: no binding (tested: 15 ug fusion protein)

- binding result [4]: no binding
B10: mDia2 DAD L1048A, yeast two-hybrid Gal4 fusion (other, not shown: small tags and cut ends)
chain: B6 chain with L18A, E29K, E30R
